This is an account of results in the RNAGym collection of RNA variant scans (doi:10.1073/pnas.2313332121).

B1: TPR t1 (parent)
chain: GACCAAUCUGCCCUCAGAGCUCGAGAACAUCUUCGGAUGCAGAGGAGGCAGGCUUCGGUGGCGCGAUAGCGCCAACGUCCUCAACCUCCAAUGCAUCCCACCACAUGAUGAUGCCUGAAGAGCCUUGGUUUUUUG

This series covers variants of B1. As to the kind of experiment: polymerase ribozyme fitness, log enrichment relative to wild type (log ratio); higher = more active; in vitro selection for triplet polymerase activity. The method, boiled down:
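Libraries of mutants in each subunit of a heterodimeric triplet polymerase ribozyme were generated by PCR and transcribed. In triplicate, each went through one in vitro selection round: annealing with biotinylated primer, partner subunit and triplets; frozen incubation at −7 °C; gel excision of extended constructs; streptavidin-bead capture; RT-PCR. Fitness, taken from Illumina sequencing of input and output libraries, is the logarithm of a genotype's enrichment over wild-type enrichment, averaged across replicates with inverse-variance weights. The logarithm is base 2, and genotypes needed ≥10 input reads and ≥1 read per output to be kept.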
Consider U9C C40G G63U G69U C79G C82U A118U A119G G135U, for which the “polymerase ribozyme fitness (log ratio)” value was -4.3.
In the case of A24G C62A C89G G113C C115A A118C it was -6.92; in that of C62A G77U U78A A119U G128C, -5.16; in that of C12U A43G C72U C123A, 0.368.
G107A U133G: the “polymerase ribozyme fitness (log ratio)” value was -4.3.
On to C80U G113C G135C, for which the “polymerase ribozyme fitness (log ratio)” value is -2.92.
In the case of A29G C79U it was -1.06; in that of G25A G47A A100G U112G C123U, -6.98.
Turning to G35A C53G C62U G77C A84C, the “polymerase ribozyme fitness (log ratio)” value was -4.08.
Consider G10U C15A G61U A75C G117A, for which the “polymerase ribozyme fitness (log ratio)” value was -3.07.
As to C53G U131G, the “polymerase ribozyme fitness (log ratio)” value was -1.07.
Under G39U C56G stands -1.37; under A43U U129A, -2.81.
Under C80A C94U stands -2.69; under C12U G42A, -1.82.
Under C80U C86U C114G C124G U125A stands -3.38; under C8G C114U, -0.759; under G45C A46U C72G, -2.36.
In the case of A5C C12U C73A C99U, the “polymerase ribozyme fitness (log ratio)” value is -4.28.
In the case of A41U G45C C72A U129C it was -2.79.
Under U30C G113C stands -3.49; under C12G C20A G69A C79U C123U, -5.46.
Under C82U G110A C115G stands -5.29; under G52C G60A U81A A83U, -5.15.
As to G61A C70A, the “polymerase ribozyme fitness (log ratio)” value was -3.99.
As to C56G G93A, the “polymerase ribozyme fitness (log ratio)” value was -1.61.
Under C56G G93C stands -1.86; under C73A U109C C114G C115A G122U, -7.04.
Consider A18C G127C, for which the “polymerase ribozyme fitness (log ratio)” value is -3.02.
On to C20U U96G C123G U129A, for which the “polymerase ribozyme fitness (log ratio)” value was -1.64.
Under G17C C28A G63A G120C C123G stands -6.85.
With G10A G45C C56G C72U, the “polymerase ribozyme fitness (log ratio)” value is -2.53.
Consider U9G C13U A91U G113A A119C G128A, for which the “polymerase ribozyme fitness (log ratio)” value is -4.02.
Under C8G C12G G17C C82A C102U C104A stands -5.44; under C70U C85G, -2.33.
As to C22G G60C, the “polymerase ribozyme fitness (log ratio)” value was -3.23.
Under C62A A121C stands 0.464; under G52C C56A C102U U133A, -2.78; under G19A G42U G45C A50U, -4.81.
In the case of C12A A43U, the “polymerase ribozyme fitness (log ratio)” value was -2.89.
In the case of G45U A50U G60U C79G it was -2.53.
With C56A C80U C102A C124U, the “polymerase ribozyme fitness (log ratio)” value is -2.1.
Under A118U C123A U130C stands -0.0514; under C49A G57U, -0.512.
In the case of C8U C70G U125A U130G, the “polymerase ribozyme fitness (log ratio)” value is -3.05.
With C64U C123G, the “polymerase ribozyme fitness (log ratio)” value is 1.86.
As for C88U G110A, the “polymerase ribozyme fitness (log ratio)” value was -1.46.
Take C40G G128A: the “polymerase ribozyme fitness (log ratio)” value was -3.61.
Consider G61U G117C U131C, for which the “polymerase ribozyme fitness (log ratio)” value was -3.82.
In the case of C56U C102A U129G it was -3.35; in that of U38A G57A G63A, -4.08; in that of G17A C62G G63A A74C A90C U109G, -5.9.
For C13U A50U G77C A121G C123U C124U G128U U131C, the “polymerase ribozyme fitness (log ratio)” value stood at 0.387.
In the case of G42A G44U C99A A100U U109A it was -5.27; in that of G48A C62A U96A, -2.62.
A41U C70G: the “polymerase ribozyme fitness (log ratio)” value is -5.5.
In the case of C12U C13G A37U U54G C73U C123U it was 1.09.
Under C40A G77A stands -1.33; under G10U C82A U92G U116C A119U, -5.07.
Under C4U A18C stands -3.99; under C22U U55A, -3.49.
With A46C G120A U126A, the “polymerase ribozyme fitness (log ratio)” value is -0.908.
In the case of G71U C115A it was 1.51; in that of C11G C15G A90C G110A, -4.74.
In the case of G10U C13U G48A G61A A83U C98U G117A it was -2.09.
Consider G17U C40G C89G, for which the “polymerase ribozyme fitness (log ratio)” value is -6.24.
Consider C13A A29G U55A C76G C101G C102A U112C, for which the “polymerase ribozyme fitness (log ratio)” value is -8.04.
Under G47A C72U A83U stands -1.18.
For C114U U133G, the “polymerase ribozyme fitness (log ratio)” value was -0.517.
As to C12A G63C, the “polymerase ribozyme fitness (log ratio)” value was -1.33.
In the case of A16U U55A U81A A84C U132A, the “polymerase ribozyme fitness (log ratio)” value is -2.61.
In the case of A5C A27C it was -3.97.
As for A5U C22G, the “polymerase ribozyme fitness (log ratio)” value was -3.43.
Under A37C G45U G51U C73U C124G stands -3.87; under A50U G60A, -0.0812.
In the case of C56A C70A G77C, the “polymerase ribozyme fitness (log ratio)” value is -3.23.
In the case of C49U A50U it was -3.59; in that of C31U U32A G47C G61C G63A C115U, -7.14; in that of G45C C72A G135C, -0.387.
In the case of U78C A100U U125G it was -1.3; in that of U106G, -1.17.
Turning to C49U G58U C62G A119U C124U, the “polymerase ribozyme fitness (log ratio)” value is -1.37.
Under G57A G58C G63A C89A stands -6.16.
As for C53G G63A A111C A119G, the “polymerase ribozyme fitness (log ratio)” value was -1.67.
